Results on 4 molecules are retold here after patent EP4640225A1 (dated 2025).

What all share (assay): activation reporter or marker
Assay [1] has as its target T1, KK-LC-1 peptide on HLA-B*15:01 (human).
T1 peptide: RQKRILVNL

The target in assay [2] is T2, KK-LC-1 peptide on HLA-A*26:03 (human).
T2 peptide: RFQRNTGEM

Assay [3] deals with T3, KK-LC-1 peptide on HLA-C*07:02 (human).
T3 peptide: RFQRNTGEM

Assay [4] addresses T4, KK-LC-1 peptide on HLA-B*51:01 (human).
T4 peptide: RFQRNTGEM

In assay [5] the target is T5, KK-LC-1 peptide on HLA-C*14:02 (human).
T5 peptide: RFQRNTGEM

Assay [6] addresses T6, KK-LC-1 peptide on HLA-A*24:02 (human).
T6 peptide: RFQRNTGEM

Assay [7] deals with T7, KK-LC-1 peptide on HLA-B*15:01 (human).
T7 peptide: RFQRNTGEM

B1: pt. 1-ex08TCR (TCR, V domains shown)
Valpha: KDQVFQPSTVASSEGAVVEIFCNHSVSNAYNFFWYLHFPGCAPRLLVKGSKPSQQGRYNMTYERFSSSLLILQVREADAAVYYCAVEDVPVNDYKLSFGAGTTVTVRA
Vbeta: DAGITQSPRHKVTETGTPVTLRCHQTENHRYMYWYRQDPGHGLRLIHYSYGVKDTDKGEVSDGYSVSRSKTEDFLLTLESATSSQTSVYFCAISAEGTYEQYFGPGTRLTVT
Take B1: in assay [1], the binding result is given as “recognises”.

B2: pt. 1-ex15TCR (TCR, V domains shown)
Valpha: AQKVTQAQTEISVVEKEDVTLDCVYETRDTTYYLFWYKQPPSGELVFLIRRNSFDEQNEISGRYSWNFQKSTSSFNFTITASQVVDSAVYFCALSDPEESGYALNFGKGTSLLVTP
Vbeta: DTGVSQDPRHKITKRGQNVTFRCDPISEHNRLYWYRQTLGQGPEFLTYFQNEAQLEKSRLLSDRFSAERPKGSFSTLEIQRTEQGDSAMYLCASSSNEKLFFGSGTQLSVL
As to B2, the binding result in assay [1] is given as “recognises”.

B3: pt. 2-ex09TCR (TCR, V domains shown)
Valpha: GQNIDQPTEMTATEGAIVQINCTYQTSGFNGLFWYQQHAGEAPTFLSYNVLDGLEEKGRFSSFLSRSKGYSYLLLKELQMKDSASYLCAVDDGGATNKLIFGTGTLLAVQP
Vbeta: ETGVTQSPTHLIKTRGQQVTLRCSSQSGHNTVSWYQQALGQGPQFIFQYYREEENGRGNFPPRFSGLQFPNYSSELNVNALELDDSALYLCASSTRDRGTYEQYFGPGTRLTVT
For the molecule B3, the binding result in assay [1] is recorded as “recognises”.

B4: pt. 2-ex08TCR (TCR, V domains shown)
Valpha: GESVGLHLPTLSVQEGDNSIINCAYSNSASDYFIWYKQESGKGPQFIIDIRSNMDKRQGQRVTVLLNKTVKHLSLQIAATQPGDSAVYFCAEIPWGGSQGNLIFGKGTKLSVKP
Vbeta: DTGVSQDPRHKITKRGQNVTFRCDPISEHNRLYWYRQTLGQGPEFLTYFQNEAQLEKSRLLSDRFSAERPKGSFSTLEIQRTEQGDSAMYLCASSRDDREYFGEGSWLTVV
As for B4, the binding result in assay [2] is given as “no recognition”; in assay [3], “no recognition”; in assay [4] it was “no recognition”; in assay [5] it was “recognises”; in assay [6], “no recognition”; in assay [7] it was “no recognition”.
